Test results as given in US20070014776A1, “Identification of adiponutrin-related proteins as esterases and methods of use for the same” (priority 2005, published 2007).
Each block holds one molecule with its values, some of them ahead of it.

Experiments:
[1] = tested on: 3T3-L1 adipocytes; experiment: Effect of adiponutrin overexpression on 3T3-L1 lipase activity (free fatty acid and glycerol release); format: cell-based, mouse
Method: For adenovirus infection, 3T3-L1 cells were cultured in DMEM with 10% FBS at 37° C. with 5% CO2. Two days after the cultures were confluent, the cells were induced to differentiate (defined as day 0) by incubation in DMEM supplemented with 10% FBS, 1 μM dexamethasone (Sigma, St. Louis, Mo.), 0.5 mM isobutylmethylxanthine (Sigma) (MIX), and 1 μg/ml insulin (Sigma). After two days, the medium was replaced with DMEM supplemented with 10% FBS and 1 μg/ml insulin, and cells were then fed every 2 days with the same medium. At day 8 of differentiation, cells grown in 24-well plates were incubated with 500 MOI of adenovirus in OPTI-MEM (Invitrogen, Carlsbad, Calif.) for 2 hours and then DMEM with 10% FBS. After 48 hours, cells were incubated with DMEM with no serum overnight. The next day, cells were washed three times with PBS and incubated with PBS with 2% fatty acid-free BSA (Sigma, St. Louis, Mo.) with 10 μM or 100 nM of isoproterenol (Sigma). When needed, cells were preincubated with 100 nM insulin 30 min prior to isoproterenol treatment. Conditioned medium was taken at the indicated 0-4 hours after isoproterenol treatment and analyzed for free fatty acids and glycerol. Free fatty acids release was measured by using a NEFA-c kit (Wako Chemicals, Richmond, Va.) and glycerol release was measured by using a lipolysis kit (Zen-bio, Research Triangle Park, N.C.).

[2] = Lipase assay with DGGR substrate on immunoprecipitated V5-tagged proteins; format: biochemical; details: V5-tagged WT vs patatin-like domain mutant (Ser of GXSXG to Ala); FIG. 6
Method: HEK293 cells were grown in DMEM media supplemented with 10% fetal calf serum at 37° C. in an atmosphere of 5% CO2. Ten cm tissue culture dishes with 90% confluent HEK293 cells were transfected using Lipofectamine 2000 according to the manufacturer's instructions (Invitrogen, Carlsbad, Calif.). Ten μg of plasmid DNA containing the following expression constructs were used: GFP, human adiponutrin, human adiponutrin-c-term-V5, human desnutrin/ATGL-c-term-V5-6His, human GS2-c-term-V5, human GS2-like-c-term-V5-6His, and patatin-like domain mutants of c-term-V5 and c-term-V5-6His tagged constructs. Three days post-transfection, cells were washed with ice cold TBS and harvested. Cells were pelleted by centrifugation at 1000×g for 5 minutes. Supernatant was discarded, and pellets stored at −80° C. until used for assays.
Frozen cells, as described above, were resuspended in 1 ml of lipase reaction buffer (20 mM Tris-HCl, pH 8.0, 150 mM NaCl, 0.53% sodium taurodeoxycholate, 1.33 mM CaCl2) containing complete mini-protein inhibitor tablets (Invitrogen, Carlsbad, Calif.; 1 tablet per 7 ml). The resulting suspensions were then sonicated on ice with 4 bursts of 10 seconds from a probe sonicator. Homogenized lysate was then centrifuged at 1000×g for 10 minutes to remove cell debris. A 50 μl aliquot of the resulting lysate was saved for analysis and the remaining lysate was used for the immunoprecipitation. Anti-V5 mouse monoclonal antibody (7.2 μg; Invitrogen, Carlsbad, Calif.) was added to each lysate and then placed at 4° C. overnight with tumbling. Next, 20 μl of protein-A beads (Repligen) was added to each sample and tumbled at 4° C. for 2 hours. Beads were then pelleted with gentle centrifugation and […] of supernatant was saved for analysis. The beads were washed 4 times with 900 μl of lipase reaction buffer followed by resuspension in 100 μl of lipase reaction buffer.
The lipase assay (Lehner and Verger (1997) Biochemistry 36:1861-68) uses 1,2-o-dilauryl-rac-glycero-3-glutaric acid-(6′-methylresorufin) ester (DGGR) as substrate. DGGR is cleaved by lipase, resulting in an unstable dicarbonic acid ester that is spontaneously hydrolyzed to yield glutaric acid and methylresorufin, a bluish-purple chromophore with peak absorption at 581 nm. The rate of methylresorufin formation is directly proportional to the lipase activity in the sample. Ten μl of whole cell lysate or IP beads were added to the wells of a 96-well plate. After diluting the samples up to 125 μl in lipase reaction buffer, 125 μl of reaction buffer containing DGGR (final concentration 36 μg/ml in a final assay volume of 250 μl per well). After mixing, OD 581 was monitored at 5 minute intervals for 2 hours to assess lipase activity. Lipase activity is plotted as delta-OD 581/sec. […]

[3] = tested on: HEK293 cells; experiment: [1-14C]-oleic acid incorporation into triglyceride in transfected HEK293 cells; format: cell-based; details: overexpression in HEK293 cells; for intracellular triglycerides: compared to control cells (empty vector), FIG. 7
Method: HEK293 cells were cultured in Dulbecco's modified Eagle's medium (DMEM) that contained 10% FBS at 37° C. with 5% CO2. HEK293 cells grown in 12-well plates to 60-70% confluence were transfected with 0.5 μg of human adiponutrin, desnutrin/ATGL, GS2, or GS2-like expression vector using FuGene (Roche). Empty vector, pADORI1.2 was used as a control. After 48 hours, cells were treated with 4 μM [1-^14C]-oleic acid (204 μCi/ml total; Perkin Elmer) and 16 μM cold oleic acid (Sigma) in serum-free DMEM. After 4 hours, cells were washed twice and incubated further with DMEM with 10% FBS. After 16 hours, lipids were extracted and separated by TLC using hexane/ether/acetic acid (80:20:1). Radioactive lipids were detected and quantitated by Molecular Imager FX (Bio-Rad).

[4] = adenoviral overexpression in 3T3-L1 adipocytes, after treatment with 10 μM isoproterenol, vs GFP, FIG. 8

Molecule: insulin [reference compound]
isoproterenol-stimulated lipolysis ([1]; submaximal isoproterenol, preincubation with 100 nM insulin, FIG. 9): decreased

B1: GS2: human GS2 protein, SEQ ID NO:8; adiponutrin family member (protein, listed as Homo sapiens)
chain: MKHINLSFAACGFLGIYHLGAASALCRHGKKLVKDVKAFAGASAGSLVASVLLTAPEKIEECNQFTYKFAEEIRRQSFGAVTPGYDFMARLRSGMESILPPSAHELAQNRLHVSITNAKTRENHLVSTFSSREDLIKVLLASSFVPIYAGLKLVEYKGQKWVDGGLTNALPILPVGRTVTISPFSGRLDISPQDKGQLDLYVNIAKQDIMLSLANLVRLNQALFPPSKRKMESLYQCGFDDTVKFLLKENWFE
rate of lipid hydrolysis, wild-type versus active-site serine to alanine mutant [2]: significantly higher
intracellular triglycerides [3]: decreased intracellular triglycerides significantly

B2: desnutrin/ATGL: human desnutrin/adipocyte triglyceride lipase protein, SEQ ID NO:5 (protein, listed as Homo sapiens)
chain: MFPREKTWNISFAGCGFLGVYYVGVASCLREHAPFLVANATHIYGASAGALTATALVTGVCLGEAGAKFIEVSKEARKRFLGPLHPSFNLVKIIRSFLLKVLPADSHEHASGRLGISLTRVSDGENVIISHFNSKDELIQANVCSGFIPVYCGLIPPSLQGVRYVDGGISDNLPLYELKNTITVSPFSGESDICPQDSSTNIHELRVTNTSIQFNLRNLYRLSKALFPPEPLVLREMCKQGYRDGLRFLQRNGLLNRPNPLLALPPARPHGPEDKDQAVESAQAEDYSQLPGEDHILEHLPARLNEALLEACVEPTDLLTTLSNMLPVRLATAMMVPYTLPLESALSFTIRLLEWLPDVPEDIRWMKEQTGSICQYLVMRAKRKLGRHLPSRLPEQVELRRVQSLPSVPLSCAAYREALPGWMRNNLSLGDALAKWEECQRQLLLGLFCTNVAFPPEALRMRAPADPAPAPADPASPQHQPAGPAPLLSTPAPEARPVIGALGL
rate of lipid hydrolysis, wild-type versus active-site serine to alanine mutant [2]: significantly higher
intracellular triglycerides [3]: significant decrease

Further lines, with some results ahead:

rate of lipid hydrolysis, wild-type versus active-site serine to alanine mutant [2]: significantly higher
release of free fatty acids into the medium [1, 4]: significantly decreased
release of glycerol into the medium [1, 4]: significantly decreased
basal lipolysis ([1]; adenoviral overexpression in 3T3-L1 adipocytes, no isoproterenol, FIG. 9): no effect
inhibition of lipolysis by insulin ([1]; adenoviral overexpression in 3T3-L1 adipocytes, submaximal isoproterenol plus insulin, FIG. 9): significantly enhanced
B3: adiponutrin: human adiponutrin protein, SEQ ID NO:2; patatin-like domain protein of the adiponutrin family, expressed recombinantly (protein, listed as Homo sapiens)
chain: MYDAERGWSLSFAGCGFLGFYHVGATRCLSEHAPHLLRDARMLFGASAGALHCVGVLSGIPLEQTLQVLSDLVRKARSRNIGIFHPSFNLSKFLRQGLGKCLPANVHQLISGKIGISLTRVSDGENVLVSDFRSKDEVVDALVCSCFMPFYSGLIPPSFRGVRYVDGGVSDNVPFIDAKTTITVSPFYGEYDICPKVKSTNFLHVDITKLSLRLCTGNLYLLSRAFVPPDLKVLGEICLRGYLDAFRFLEEKGICNRPQPGLKSSSEGMDPEVAMPSWANMSLDSSPESAALAVRLEGDELLDHLRLSILPWDESILDTLSPRLATALSEEMKDKGGYMSKICNLLPIRIMSYVMLPCTLPVESAIAIVQRLVTWLPDMPDDVLWLQWVTSQVFTRVLMCLLPASRSQMPVSSQQASPCTPEQDWPCWTPCSPEGCPAETKAEATPRSILRSSLNFFLGNKVPAGAEGLSTFPSFSLEKSL
intracellular triglycerides [3]: unable to demonstrate a decrease
triglyceride incorporation ([3]; in several experiments (data not shown)): trend toward increased triglyceride incorporation

rate of lipid hydrolysis, wild-type versus active-site serine to alanine mutant [2]: not affected
B4: GS2-like: human GS2-like protein, SEQ ID NO:11; adiponutrin family member (protein, listed as Homo sapiens)
chain: MGFLEEEGRWNLSFSGAGYLGAHHVGATECLRQRAPRLLQGARRIYGSSSGALNAVSIVCGKSVDFCCSHLLGMVGQLERLSLSILHPAYAPIEHVKQQLQDALPPDAHVLASQRLGISLTRWPDGRNFLVTDFATCDELIQALVCTLYFPFYCGLIPPEFRGERYIDGALSNNLPFADCPSTITVSPFHGTVDICPQSTSPNLHELNVFNFSFQISTENFFLGLICLIPPSLEVVADNCRQGYLDALRFLERRGLTKEPVLWTLVSKEPPAPADGNWDAGCDQRWKGGLSLNWKVPHVQVKDVPNFEQLSPELEAALKKACTRDPSRWARFWHSGPGQVLTYLLLPCTLPFEYIYFRSRRLVVWLPDVPADLWWMQGLLRNMALEVFSRTKAQLLGPISPPATRVLETSPLQPQIAPHREELGPTHQA
intracellular triglycerides [3]: decreased intracellular triglycerides significantly
